Test results from patent US20050026256.

Target: T1, synthetic peptide substrate SEVNLDAEFR containing the APP Swedish mutation
T1 chain: SEVNLDAEFR

B1: Hu-Asp2 (human aspartyl protease 2), full-length, expressed from pcDNA3.1(+)Hygro/Hu-Asp2 (protein)
chain: TQHGIRLPLRSGLGGAPLGLRLPRETDEEPEEPGRRGSFVEMVDNLRGKSGQGYYVEMTVGSPPQTLNILVDTGSSNFAVGAAPHPFLHRYYQRQLSSTYRDLRKGVYVPYTQGKWEGELGTDLVSIPHGPNVTVRANIAAITESDKFFINGSNWEGILGLAYAEIARPDDSLEPFFDSLVKQTHVPNLFSLQLCGAGFPLNQSEVLASVGGSMIIGGIDHSLYTGSLWYTPIRREWYYEVIIVRVEINGQDLKMDCKEYNYDKSIVDSGTTNLRLPKKVFEAAVKSIKAASSTEKFPDGFWLGEQLVCWQAGTTPWNIFPVISLYLMGEVTNQSFRITILPQQYLRPVEDVATSQDDCYKFAISQSSTGTVMGAVIMEGFYVVFDRARKRIGFAVSACHVHDEFRTAAVEGPFVTLDMEDCGYNIPQTDESTLMTIAYVMAAICALFMLPLCLMVCQWRCLRCLRQQHDDFADDISLLK
hydrolysis of the synthetic peptide substrate, RP-HPLC with UV detection; products identified by Edman sequencing and MALDI-TOF: the two product peaks which eluted before the intact peptide substrate, were confirmed to have the sequence DAEFR and SEVNL
β-secretase activity of chromatography fractions (peptide substrate assay): Fractions containing both Hu-Asp2 immunoreactivity and β-secretase activity were combined
